The values that follow come from PMC3925188 (Biochimica et biophysica acta, 2013).

The experiment concerns the target T1, Cyp33 RRM domain (1–83) (UniProt Q9UNP9 1-83).
T1 sequence (looked up): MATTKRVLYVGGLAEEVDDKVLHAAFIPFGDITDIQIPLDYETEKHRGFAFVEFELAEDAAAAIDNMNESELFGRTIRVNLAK
As to the kind of experiment: NMR titration.

B1: KMT2A PHD3 finger (1565–1627) (domain or fragment, UniProt Q03164 1565-1627, looked up)
chain: KGNFCPLCDKCYDDDDYESKMMQCGKCDRWVHSKCENLSDEMYEILSNLPESVAYTCVNCTER
B1: the binding result was “binds”.
